According to patent US20210284734A1 (SYMPHOGEN A S, published 2021):

How the values were obtained:
Assay in all cases: SPR, Fab on captured PD-1-Fc;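 also: Alanine-scan PD-1 Fc fusions expressed transiently in ExpiCHO, captured on anti-human IgG Fc surface in IBIS MX96, anti-PD-1 Fab association 15 min, dissociation 30 min, Langmuir 1:1 fit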
[1] = target: T1, human PD-1 ECD-Fc P130A (human, UniProt Q15116 21-170)
T1 construct: not shown: human IgG1 Fc, residues P101-K330

[2] = target: T2, human PD-1 ECD-Fc P28L (human, UniProt Q15116 21-170)
T2 construct: also called Rat mutation P28L; not shown: human IgG1 Fc, residues P101-K330

[3] = target: T3, human PD-1 ECD-Fc F56A (human, UniProt Q15116 21-170)
T3 construct: not shown: human IgG1 Fc, residues P101-K330

[4] = target: T4, human PD-1 ECD-Fc D48A (human, UniProt Q15116 21-170)
T4 construct: not shown: human IgG1 Fc, residues P101-K330

[5] = target: T5, human PD-1 ECD-Fc S159A (human, UniProt Q15116 21-170)
T5 construct: not shown: human IgG1 Fc, residues P101-K330

[6] = target: T6, human PD-1 ECD-Fc E61A (human, UniProt Q15116 21-170)
T6 construct: not shown: human IgG1 Fc, residues P101-K330

[7] = target: T7, human PD-1 ECD-Fc G22A (human, UniProt Q15116 21-170)
T7 construct: not shown: human IgG1 Fc, residues P101-K330

[8] = target: T8, human PD-1 ECD-Fc L138A (human, UniProt Q15116 21-170)
T8 construct: not shown: human IgG1 Fc, residues P101-K330

[9] = target: T9, human PD-1 ECD-Fc S157A (human, UniProt Q15116 21-170)
T9 construct: not shown: human IgG1 Fc, residues P101-K330

[10] = target: T10, human PD-1 ECD-Fc A154G (human, UniProt Q15116 21-170)
T10 construct: not shown: human IgG1 Fc, residues P101-K330

[11] = target: T11, human PD-1 ECD-Fc P83A (human, UniProt Q15116 21-170)
T11 construct: not shown: human IgG1 Fc, residues P101-K330

[12] = target: T12, human PD-1 ECD-Fc T76A (human, UniProt Q15116 21-170)
T12 construct: not shown: human IgG1 Fc, residues P101-K330

[13] = target: T13, human PD-1 ECD-Fc E150A (human, UniProt Q15116 21-170)
T13 construct: not shown: human IgG1 Fc, residues P101-K330

[14] = target: T14, human PD-1 ECD-Fc Q75A (human, UniProt Q15116 21-170)
T14 construct: not shown: human IgG1 Fc, residues P101-K330

[15] = target: T15, human PD-1 ECD-Fc N58A (human, UniProt Q15116 21-170)
T15 construct: not shown: human IgG1 Fc, residues P101-K330

[16] = target: T16, human PD-1 ECD-Fc A163G (human, UniProt Q15116 21-170)
T16 construct: not shown: human IgG1 Fc, residues P101-K330

[17] = target: T17, human PD-1 ECD-Fc N102A (human, UniProt Q15116 21-170)
T17 construct: not shown: human IgG1 Fc, residues P101-K330

[18] = target: T18, human PD-1 ECD-Fc G164A (human, UniProt Q15116 21-170)
T18 construct: not shown: human IgG1 Fc, residues P101-K330

[19] = target: T19, human PD-1 ECD-Fc D85A (human, UniProt Q15116 21-170)
T19 construct: not shown: human IgG1 Fc, residues P101-K330

[20] = target: T20, human PD-1 ECD-Fc P158A (human, UniProt Q15116 21-170)
T20 construct: not shown: human IgG1 Fc, residues P101-K330

[21] = target: T21, human PD-1 ECD-Fc L42A (human, UniProt Q15116 21-170)
T21 construct: not shown: human IgG1 Fc, residues P101-K330

[22] = target: T22, human PD-1 ECD-Fc V64K (human, UniProt Q15116 21-170)
T22 construct: also called Rat mutation V64K; not shown: human IgG1 Fc, residues P101-K330

[23] = target: T23, human PD-1 ECD-Fc P152A (human, UniProt Q15116 21-170)
T23 construct: not shown: human IgG1 Fc, residues P101-K330

[24] = target: T24, human PD-1 ECD-Fc P160A (human, UniProt Q15116 21-170)
T24 construct: not shown: human IgG1 Fc, residues P101-K330

[25] = target: T25, human PD-1 ECD-Fc H155A (human, UniProt Q15116 21-170)
T25 construct: not shown: human IgG1 Fc, residues P101-K330

[26] = target: T26, human PD-1 ECD-Fc P89A (human, UniProt Q15116 21-170)
T26 construct: not shown: human IgG1 Fc, residues P101-K330

[27] = target: T27, human PD-1 ECD-Fc T59A (human, UniProt Q15116 21-170)
T27 construct: not shown: human IgG1 Fc, residues P101-K330

[28] = target: T28, human PD-1 ECD-Fc P21A (human, UniProt Q15116 22-170)
T28 construct: not shown: human IgG1 Fc, residues P101-K330

[29] = target: T29, human PD-1 ECD-Fc S60A (human, UniProt Q15116 21-170)
T29 construct: not shown: human IgG1 Fc, residues P101-K330

[30] = target: T30, human PD-1 ECD-Fc G119A (human, UniProt Q15116 21-170)
T30 construct: not shown: human IgG1 Fc, residues P101-K330

[31] = target: T31, human PD-1 ECD-Fc T153A (human, UniProt Q15116 21-170)
T31 construct: not shown: human IgG1 Fc, residues P101-K330
T31 sequence (Q15116 21-170 T153A): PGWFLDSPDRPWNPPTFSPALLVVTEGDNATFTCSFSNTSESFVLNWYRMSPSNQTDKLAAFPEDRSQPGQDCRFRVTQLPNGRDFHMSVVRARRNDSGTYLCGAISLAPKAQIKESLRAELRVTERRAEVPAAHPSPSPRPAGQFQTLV

T30 sequence (Q15116 21-170 G119A): as the sequence (Q15116 21-170 T153A) above, with G99A, A133T counted along it
T27 sequence (Q15116 21-170 T59A): as the sequence (Q15116 21-170 T153A) above, with T39A, A133T counted along it
T23 sequence (Q15116 21-170 P152A): as the sequence (Q15116 21-170 T153A) above, with P132A, A133T counted along it
T26 sequence (Q15116 21-170 P89A): as the sequence (Q15116 21-170 T153A) above, with P69A, A133T counted along it
T1 sequence (Q15116 21-170 P130A): as the sequence (Q15116 21-170 T153A) above, with P110A, A133T counted along it
T16 sequence (Q15116 21-170 A163G): as the sequence (Q15116 21-170 T153A) above, with A133T, A143G counted along it
T29 sequence (Q15116 21-170 S60A): as the sequence (Q15116 21-170 T153A) above, with S40A, A133T counted along it
T18 sequence (Q15116 21-170 G164A): as the sequence (Q15116 21-170 T153A) above, with A133T, G144A counted along it
T11 sequence (Q15116 21-170 P83A): as the sequence (Q15116 21-170 T153A) above, with P63A, A133T counted along it
T28 sequence (Q15116 21-170 P21A): as the sequence (Q15116 21-170 T153A) above, with P1A, A133T counted along it
T20 sequence (Q15116 21-170 P158A): as the sequence (Q15116 21-170 T153A) above, with A133T, P138A counted along it
T25 sequence (Q15116 21-170 H155A): as the sequence (Q15116 21-170 T153A) above, with A133T, H135A counted along it
T6 sequence (Q15116 21-170 E61A): as the sequence (Q15116 21-170 T153A) above, with E41A, A133T counted along it
T3 sequence (Q15116 21-170 F56A): as the sequence (Q15116 21-170 T153A) above, with F36A, A133T counted along it
T2 sequence (Q15116 21-170 P28L): as the sequence (Q15116 21-170 T153A) above, with P8L, A133T counted along it
T9 sequence (Q15116 21-170 S157A): as the sequence (Q15116 21-170 T153A) above, with A133T, S137A counted along it
T5 sequence (Q15116 21-170 S159A): as the sequence (Q15116 21-170 T153A) above, with A133T, S139A counted along it
T21 sequence (Q15116 21-170 L42A): as the sequence (Q15116 21-170 T153A) above, with L22A, A133T counted along it
T10 sequence (Q15116 21-170 A154G): as the sequence (Q15116 21-170 T153A) above, with A133T, A134G counted along it
T17 sequence (Q15116 21-170 N102A): as the sequence (Q15116 21-170 T153A) above, with N82A, A133T counted along it
T14 sequence (Q15116 21-170 Q75A): as the sequence (Q15116 21-170 T153A) above, with Q55A, A133T counted along it
T4 sequence (Q15116 21-170 D48A): as the sequence (Q15116 21-170 T153A) above, with D28A, A133T counted along it
T7 sequence (Q15116 21-170 G22A): as the sequence (Q15116 21-170 T153A) above, with G2A, A133T counted along it
T12 sequence (Q15116 21-170 T76A): as the sequence (Q15116 21-170 T153A) above, with T56A, A133T counted along it
T13 sequence (Q15116 21-170 E150A): as the sequence (Q15116 21-170 T153A) above, with E130A, A133T counted along it

| KD mutant/KD wild-type [1] | KD mutant/KD wild-type [2] | KD mutant/KD wild-type [3] | KD mutant/KD wild-type [4] | KD mutant/KD wild-type [5] | KD mutant/KD wild-type [6] | KD mutant/KD wild-type [7] | KD mutant/KD wild-type [8] | KD mutant/KD wild-type [9] | KD mutant/KD wild-type [10] | KD mutant/KD wild-type [11] | KD mutant/KD wild-type [12] | KD mutant/KD wild-type [13] | KD mutant/KD wild-type [14] | KD mutant/KD wild-type [15] | KD mutant/KD wild-type [16] | KD mutant/KD wild-type [17] | KD mutant/KD wild-type [18] | KD mutant/KD wild-type [19] | KD mutant/KD wild-type [20] | Binder | other results |
| --- | --- | --- | --- | --- | --- | --- | --- | --- | --- | --- | --- | --- | --- | --- | --- | --- | --- | --- | --- | --- | --- |
| 0.9 ratio | 0.7 ratio | 0.8 ratio | 2.4 ratio | 0.9 ratio | 1 ratio | 1 ratio | 1.2 ratio | 1 ratio | 1 ratio | 0.9 ratio | 1.2 ratio | 1 ratio | 0.9 ratio | 1 ratio | 1.1 ratio | 0.7 ratio | 1 ratio | 0.9 ratio | 1 ratio | 13112.15380 Fab (Fab, V domains shown) VH: EVQLLESGGGLVQPGGSLRLSCAASGFTFSSYNMFWVRQAPGKGLEFVAEISGSNTGSRTWYAPAVKGRATISRDNSKNTLYLQMNSLRAEDTAVYYCAKSIYGGYCAGGYSCGVGLIDAWGQGTLVTVSS VL: SYELTQDPAVSVALGQTVRITCSGGSSDYYGWFQQKPGQAPVTVIYYNNKRPSDIPDRFSGSSSGNTASLTITGAQAEDEADYYCGNADSSVGVFGSGTKVTVL | KD mutant/KD wild-type [21]: 2.2 ratio; KD mutant/KD wild-type [22]: 1 ratio; KD mutant/KD wild-type [23]: 1 ratio; KD mutant/KD wild-type [24]: 1 ratio; KD mutant/KD wild-type [25]: 1 ratio; KD mutant/KD wild-type [26]: 0.9 ratio; KD mutant/KD wild-type [27]: 0.9 ratio; KD mutant/KD wild-type [28]: 1.1 ratio; KD mutant/KD wild-type [29]: 1 ratio; KD mutant/KD wild-type [30]: 1 ratio; KD mutant/KD wild-type [31]: 1 ratio |
| 0.5 ratio | 0.5 ratio | 0.5 ratio | 0.6 ratio | 0.8 ratio | 1.1 ratio | 0.9 ratio | 1.1 ratio | 1 ratio | 1 ratio | 0.8 ratio | 0.3 ratio | 1 ratio | 0.5 ratio | 0.7 ratio | 1.1 ratio | 0.6 ratio | 0.9 ratio | 1.6 ratio | 0.9 ratio | 12865.17150 Fab (Fab, V domains shown, monomeric Fab fragment) VH: EVQLLESGGGLVQPGGSLRLSCAASGFDFSDHGMQWVRQAPGKGLEYVGVIDTTGRYTYYAPAVKGRATISRDNSKNTLYLQMNSLRAEDTAVYYCAKTTCVGGYLCNTVGSIDAWGQGTLVTVSS VL: SYELTQDPAVSVALGQTVRITCSGGGSSSYYGWYQQKPGQAPVTVIYDDTNRPSGIPDRFSGSSSGNTASLTITGAQAEDEADYYCGGYEGSSHAGIFGSGTKVTVL | KD mutant/KD wild-type [21]: 0.5 ratio; KD mutant/KD wild-type [22]: 1.3 ratio; KD mutant/KD wild-type [23]: 0.9 ratio; KD mutant/KD wild-type [24]: 0.8 ratio; KD mutant/KD wild-type [25]: 1 ratio; KD mutant/KD wild-type [26]: 0.9 ratio; KD mutant/KD wild-type [27]: 1 ratio; KD mutant/KD wild-type [28]: 1 ratio; KD mutant/KD wild-type [29]: 0.6 ratio; KD mutant/KD wild-type [30]: 0.4 ratio; KD mutant/KD wild-type [31]: 1 ratio |
| 105 ratio | 1.9 ratio | 1.5 ratio | 1 ratio | 1.1 ratio | 1.2 ratio | 1 ratio | 1 ratio | 0.9 ratio | 0.8 ratio | 1.5 ratio | 1.4 ratio | 1 ratio | 1 ratio | 1.3 ratio | 1 ratio | 1.5 ratio | 1.1 ratio | 2.5 ratio | 1.2 ratio | 12819.17149 Fab (Fab, V domains shown, monomeric Fab fragment) VH: EVQLLESGGGLVQPGGSLRLSCAASGFTFTRYDMVWVRQAPGKGLEWVAGIGDSNKMTRYAPAVKGRATISRDNSKNTLYLQMNSLRAEDTAVYYCAKGSCIACWDEAGRIDAWGQGTLVTVSS VL: SYELTQDPAVSVALGQTVRITCSGGGSYDGSSYYGWYQQKPGQAPVTVIYNNNNRPSDIPDRFSGSSSGNTASLTITGAQAEDEADYYCGSYDRPETNSDYVGMFGSGTKVTVL | KD mutant/KD wild-type [21]: 1.3 ratio; KD mutant/KD wild-type [22]: 35.7 ratio; KD mutant/KD wild-type [23]: 1.4 ratio; KD mutant/KD wild-type [24]: 1 ratio; KD mutant/KD wild-type [25]: 1.1 ratio; KD mutant/KD wild-type [26]: 1.1 ratio; KD mutant/KD wild-type [27]: 0.9 ratio; KD mutant/KD wild-type [28]: 2.1 ratio; KD mutant/KD wild-type [29]: 1.8 ratio; KD mutant/KD wild-type [30]: 1 ratio; KD mutant/KD wild-type [31]: 0.9 ratio |
